In one assay the target is T1, Spp381-DHFR (S. cerevisiae, UniProt P38282 1-291, Cy5-TMP fluorophore bound to the DHFR tag).
T1 sequence (looked up): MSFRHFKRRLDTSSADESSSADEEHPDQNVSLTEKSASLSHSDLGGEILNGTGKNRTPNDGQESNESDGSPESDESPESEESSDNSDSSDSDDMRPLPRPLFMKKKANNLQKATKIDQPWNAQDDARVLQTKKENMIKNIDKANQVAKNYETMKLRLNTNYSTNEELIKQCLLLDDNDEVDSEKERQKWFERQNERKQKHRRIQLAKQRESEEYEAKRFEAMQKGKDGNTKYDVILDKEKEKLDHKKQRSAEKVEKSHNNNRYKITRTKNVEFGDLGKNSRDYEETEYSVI
The assay is described as follows: colocalization single molecule spectroscopy.

A further assay concerns the target T2, Snu23-DHFR (S. cerevisiae, UniProt Q12368 1-194, Cy5-TMP fluorophore bound to the DHFR tag).
T2 sequence (looked up): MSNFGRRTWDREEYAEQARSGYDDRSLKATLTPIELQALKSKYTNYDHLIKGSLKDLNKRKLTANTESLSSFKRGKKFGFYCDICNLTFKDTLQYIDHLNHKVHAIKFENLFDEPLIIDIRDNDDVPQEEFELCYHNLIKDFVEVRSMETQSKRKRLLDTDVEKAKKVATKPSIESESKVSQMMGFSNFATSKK
The assay is described as follows: colocalization single molecule spectroscopy.

B1: Prp38-SNAP (natural protein)
chain: MAVNEFQVESNISPKQLNNQSVSLVIPRLTRDKIHNSMYYKVNLSNESLRGNTMVELLKVMIGAFGTIKGQNGHLHMMVLGGIEFKCILMKLIEIRPNFQQLNFLLNVKNENGFDSKYIIALLLVYARLQYYYLNGNNKNDDDENDLIKLFKVQLYKYSQHYFKLKSFPLQVDCFAHSYNEELCIIHIDELVDWLATQDHIWGIPLGKCQWNKIYNSDEESSSSESESNGDSEDDNDTSSES
modifications: SNAP-Surface 549 dye (SNAP-DY549) on the SNAP tag
Regarding B1, the “event pairs (of those arriving together) with simultaneous release” value with Spp381-DHFR and in the assay with Snu23-DHFR was 77% in each case. The “event pairs with simultaneous arrival at the pre-mRNA” value in the assay with Spp381-DHFR and in the assay with Snu23-DHFR was 91% in each case.

The values above are taken from PMC11326307 (bioRxiv, 2024).
